Assay results as given in IntAct's records for PubMed 19478074.

B1: Transforming growth factor-beta-induced protein ig-h3 (Homo sapiens), Q15582 (parent)
chain: MALFVRLLALALALALGPAATLAGPAKSPYQLVLQHSRLRGRQHGPNVCAVQKVIGTNRKYFTNCKQWYQRKICGKSTVISYECCPGYEKVPGEKGCPAALPLSNLYETLGVVGSTTTQLYTDRTEKLRPEMEGPGSFTIFAPSNEAWASLPAEVLDSLVSNVNIELLNALRYHMVGRRVLTDELKHGMTLTSMYQNSNIQIHHYPNGIVTVNCARLLKADHHATNGVVHLIDKVISTITNNIQQIIEIEDTFETLRAAVAASGLNTMLEGNGQYTLLAPTNEAFEKIPSETLNRILGDPEALRDLLNNHILKSAMCAEAIVAGLSVETLEGTTLEVGCSGDMLTINGKAIISNKDILATNGVIHYIDELLIPDSAKTLFELAAESDVSTAIDLFRQAGLGNHLSGSERLTLLAPLNSVFKDGTPPIDAHTRNLLRNHIIKDQLASKYLYHGQTLETLGGKKLRVFVYRNSLCIENSCIAAHDKRGRYGTLFTMDRVLTPPMGTVMDVLKGDNRFSMLVAAIQSAGLTETLNREGVYTVFAPTNEAFRALPPRERSRLLGDAKELANILKYHIGDEILVSGGIGALVRLKSLQGDKLEVSLKNNVVSVNKEPVAEPDIMATNGVVHVITNVLQPPANRPQERGDELADSALEIFKQASAFSRASQRSVRLAPVYQKLLERMKH
partner: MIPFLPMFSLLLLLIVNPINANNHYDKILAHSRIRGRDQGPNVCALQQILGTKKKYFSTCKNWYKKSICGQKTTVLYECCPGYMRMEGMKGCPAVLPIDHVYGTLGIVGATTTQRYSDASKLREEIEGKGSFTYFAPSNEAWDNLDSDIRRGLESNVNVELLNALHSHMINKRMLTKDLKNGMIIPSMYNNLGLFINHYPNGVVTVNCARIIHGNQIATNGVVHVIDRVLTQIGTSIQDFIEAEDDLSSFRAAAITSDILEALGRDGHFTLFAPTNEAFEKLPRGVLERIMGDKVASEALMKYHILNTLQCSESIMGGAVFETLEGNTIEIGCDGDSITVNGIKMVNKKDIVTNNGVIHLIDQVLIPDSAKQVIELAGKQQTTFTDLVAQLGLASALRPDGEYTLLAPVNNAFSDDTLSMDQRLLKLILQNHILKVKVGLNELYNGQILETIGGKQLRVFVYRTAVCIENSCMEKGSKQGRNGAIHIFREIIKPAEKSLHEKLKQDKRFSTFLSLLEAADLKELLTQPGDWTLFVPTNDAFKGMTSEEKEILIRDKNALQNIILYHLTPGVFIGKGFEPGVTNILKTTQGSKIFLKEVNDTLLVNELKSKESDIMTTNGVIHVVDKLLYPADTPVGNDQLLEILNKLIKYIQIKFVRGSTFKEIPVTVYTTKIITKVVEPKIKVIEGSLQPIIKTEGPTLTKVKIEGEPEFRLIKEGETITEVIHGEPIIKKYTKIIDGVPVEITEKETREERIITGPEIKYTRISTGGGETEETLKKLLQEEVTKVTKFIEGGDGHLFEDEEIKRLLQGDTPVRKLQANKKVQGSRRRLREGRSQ

Variants of: B1
Conditions: with postn_human POSTN

Variant	effect of a mutation on the interaction
R124H	disrupting interaction strength
